Two substances from paper PMC6925226 can be followed below.

Assay [1] addresses HML2 CA^rec C-terminal domain (CA^rec-CTD, P156-Q246) (human endogenous retrovirus HML2 (HERV-K), consensus). The assay can be described thus: AUC; sedimentation equilibrium, 20 mM Tris-HCl pH 8, 150 mM NaCl, 0.5 mM TCEP; 50-200 µM protein, three speeds; global fit to a monomer-dimer equilibrium (monomer to dimer); MSTAR analysis at 200 µM.
The target is the same in assay [2]. The assay can be described thus: solution NMR structure (inter-molecular filtered NOEs); 298 K, 20 mM Tris-HCl, 50 mM NaCl, 0.5 mM TCEP, pH 7.0; asymmetrically labelled dimer from equimolar unlabelled and 13C/15N-labelled CA^rec-CTD, 2 mM total protein.
Assay [3] addresses HML2 CA^rec (consensus HML2 capsid protein, P1-Q246) (human endogenous retrovirus HML2 (HERV-K), consensus). The assay can be described thus: cryo-EM structure; single-particle reconstruction of particles assembled in vitro at 1.4 M NaCl, 10 mg/mL, 4 °C, 1 h; T = 1, D5, D6 and T = 3 shells.

Values joined by “and” are separate entries in the source; they are usually repeats but may differ in a detail not shown here. Equal values may be shown once.

“HML2 CA^rec C-terminal domain (CA^rec-CTD, P156-Q246) (domain or fragment)” displayed a Ka in assay [1] of 3600 M⁻¹. Moreover, the stoichiometry N in assay [2] was determined as 2. “HML2 CA^rec (consensus HML2 capsid protein, P1-Q246) (natural protein)”: the stoichiometry N in assay [3] is 5 and 6.

A word on the stoichiometry N: it is the number of molecules, sites or subunits per partner or assembly.
